# Measurements: the RNAGym collection of RNA variant scans (doi:10.7554/elife.90254)
# B1: LINE1-full (parent)
# chain: UACGUAGGUGGUUUUCCCCUGAUAGUGCUAAGGGGGCCUGGAAGUUUGGACUGGGCAGAGCUCAACACAGCGUGGCAAAGUGGCUGUGGCUAGACUGCCUCUCUGGAUUCCUCGUCACUCAGCAGGGCAUCUCUGAGAGAAAUGCC
# Variants of: B1
# Experiment: self-cleavage, relative activity (ratio to wild type); higher = more cleavage; in vitro, sequencing; the parent is a self-cleaving ribozyme
row,Variant,self-cleavage
1,A43U A78C,2.35
2,A43U A78G,0.61
3,A43U A79G,0.97
4,A43U A79U,2.2
5,A43U A94G,0.12
6,A43U A117G,1.25
7,A43U A141G,1.38
8,A43U C61U,0.02
9,A43U C98G,0.06
10,A43U C99U,0.2
11,A43U G44A,1.61
12,A43U G53C,1.03
13,A43U G54A,0.56
14,A43U G58A,0.05
15,A43U G60A,0.05
16,A43U G82A,1.4
17,A43U G86U,0.08
18,A43U G89A,0.06
19,A43U G105A,1.21
20,A43U G122A,1.02
21,A43U U45G,2.34
22,A43U U46C,1.23
23,A43U U46G,1.37
24,A43U U47A,1.44

row,Variant,self-cleavage
1,A43U U47C,2.03
2,A43U U52A,1.04
3,A43U U85C,0.16
4,A43U U96A,0.12
5,A43U U100A,0.84
6,A43U U100C,1.75
7,A43U U102C,0.25
8,A43U U102G,0.75
9,A43U U104C,1.67
10,A43U U115A,1.6
11,A43U U119C,1.17
12,A43U U132C,1.26
13,A43U U134A,1.13
14,A43U U143C,0.51
15,G44A,1.21
16,G44A A50G,0.9
17,G44A A64G,0.33
18,G44A A64U,0.4
19,G44A A79G,0.99
20,G44A A79U,1.89
21,G44A A121G,1.21
22,G44A A138G,1.55
23,G44A A141G,1.42
24,G44A C90G,0.01

row,Variant,self-cleavage
1,G44A C113U,1.8
2,G44A G89C,0.04
3,G44A G89U,0.02
4,G44A U46A,0.79
5,G44A U52C,1.32
6,G44A U62C,0.02
7,G44A U73C,1.68
8,G44A U109C,1.09
9,G44A U132C,1.31
10,G44A U134C,0.92
11,G44A U143C,1.48
12,G44C,1.22
13,G44C A141G,1.03
14,G44C U115A,1.77
15,G44U,1.56
16,G44U A64G,0.12
17,G44U A69G,0.66
18,G44U A107G,1.7
19,G44U A142G,1.68
20,G44U U47C,1.45
21,G44U U96G,0.06
22,G44U U109C,1.31
23,U45A,1.21
24,U45A A57G,1.01

row,Variant,self-cleavage
1,U45A A57U,0.08
2,U45A A64U,0.37
3,U45A A67G,0.37
4,U45A A77G,1.56
5,U45A A78U,1.99
6,U45A A94G,0.05
7,U45A A94U,0.2
8,U45A A107G,1.44
9,U45A A117G,1.48
10,U45A A117U,0.76
11,U45A A121C,1.62
12,U45A A121G,1.88
13,U45A A121U,0.99
14,U45A A124G,0.41
15,U45A A129G,1.26
16,U45A A136G,2
17,U45A A141G,1.06
18,U45A A142G,1.55
19,U45A C146U,1.37
20,U45A G60A,0.03
21,U45A G89C,0.31
22,U45A G114U,1.46
23,U45A G137U,1.77
24,U45A U52C,1.46

row,Variant,self-cleavage
1,U45A U62A,0
2,U45A U62C,0.03
3,U45A U85A,0.06
4,U45A U87A,0.09
5,U45A U91A,0.46
6,U45A U108C,1.48
7,U45A U109A,0.94
8,U45A U112C,1.36
9,U45A U130A,1.38
10,U45A U132C,1.93
11,U45A U134A,1.11
12,U45A U134C,1.49
13,U45A U143A,1.21
14,U45C,1.36
15,U45C A57G,0.7
16,U45C A57U,0.11
17,U45C A59G,0.1
18,U45C A64G,0.22
19,U45C A65C,0.08
20,U45C A67U,0.12
21,U45C A77G,2.62
22,U45C A78G,1.31
23,U45C A79C,1.23
24,U45C A92G,0.08

row,Variant,self-cleavage
1,U45C A94C,0.04
2,U45C A94G,0.3
3,U45C A107G,1.73
4,U45C A117C,2.57
5,U45C A117U,1.36
6,U45C A124G,1.18
7,U45C A124U,1.58
8,U45C A138C,1.44
9,U45C A138G,1.47
10,U45C A138U,1.48
11,U45C A140C,2.27
12,U45C A140G,1.41
13,U45C A141G,1.37
14,U45C A142G,1.26
15,U45C C61U,0.09
16,U45C C63A,0.11
17,U45C C63U,0.18
18,U45C C66A,0.19
19,U45C C76A,1.22
20,U45C C95U,0.2
21,U45C C111U,1.51
22,U45C C113A,2.37
23,U45C C113U,1.15
24,U45C C116U,1.36

row,Variant,self-cleavage
1,U45C C120U,1.45
2,U45C C131U,0.93
3,U45C C145U,1.5
4,U45C C146A,1.56
5,U45C C146U,2.99
6,U45C G48U,0.9
7,U45C G49A,0.77
8,U45C G54U,0.11
9,U45C G55A,0.27
10,U45C G55C,0.1
11,U45C G60C,0.03
12,U45C G60U,0.02
13,U45C G70U,0.06
14,U45C G74A,1.25
15,U45C G75A,1.13
16,U45C G80C,1.8
17,U45C G88A,0.08
18,U45C G93A,0.07
19,U45C G105A,1.34
20,U45C G114A,1.48
21,U45C G122A,0.81
22,U45C G125C,1.13
23,U45C G126A,1.32
